We go through two proteins from paper PMC7376121, “In-Lipid Structure of Pressure-Sensitive Domains Hints Mechanosensitive Channel Functional Diversity” (Biophysical Journal, 2020).

This series deals with the molecule itself. In words: PELDOR/DEER; spin-labelled single-cysteine channel in DDM detergent solution (50 mM sodium phosphate pH 7.5, 300 mM NaCl, 0.05% DDM), diluted 1:1 with deuterated ethylene glycol, flash frozen; Q band, 50 K; distances between the labels of the subunits of one channel.

B1: Escherichia coli MscL F93C, MTSSL spin-labelled (EcMscL F93R1) (natural protein, UniProt P0A742 1-136, looked up)
chain: MSIIKEFREFAMRGNVVDLAVGVIIGAAFGKIVSSLVADIIMPPLGLLIGGIDFKQFAVTLRDAQGDIPAVVMHYGVFIQNVFDFLIVAFAICMAIKLINKLNRKKEEPAAAPAPTKEEVLLTEIRDLLKEQNNRS
modifications: MTSSL spin label on the cysteine at 93 (R1)
notes: Mechanosensitive channel of large conductance (MscL), Escherichia coli; cysteine mutant on vector pET-52b; R1 denotes the spin-labelled cysteine; also called EcF93R1; source: E. coli BL21 (DE3), purified (Ni-NTA, SEC) in DDM, MTSSL spin-labelled; also reconstituted in MSP1D1 DMPC nanodisks
One may read the stoichiometry N as a count of units in the complex or per binding partner. B1: the “stoichiometry N” value worked out at 5.

B2: Escherichia coli MscL M94C, MTSSL spin-labelled (EcMscL M94R1) (natural protein, UniProt P0A742 1-136, looked up)
chain: MSIIKEFREFAMRGNVVDLAVGVIIGAAFGKIVSSLVADIIMPPLGLLIGGIDFKQFAVTLRDAQGDIPAVVMHYGVFIQNVFDFLIVAFAIFCAIKLINKLNRKKEEPAAAPAPTKEEVLLTEIRDLLKEQNNRS
modifications: MTSSL spin label on the cysteine at 94 (R1)
notes: Mechanosensitive channel of large conductance (MscL), Escherichia coli; cysteine mutant on vector pET-52b; R1 denotes the spin-labelled cysteine; possibly a pentamer in DDM; also called EcM94R1; EcM94C; source: E. coli BL21 (DE3), purified (Ni-NTA, SEC) in DDM, MTSSL spin-labelled; also reconstituted in MSP1D1 DMPC nanodisks
Consider B2, for which the binding result is recorded as “binds”.
